We go through 2 molecules from patent US20250025567A1 (Astellas, published 2025).

The target of the assay is T1, human CLDN6 (Claudin 6) (human, UniProt P56747 1-220).
T1 construct: whole, on cells; Target presented on NUGC-3 cells that express CLDN6; also called hCLDN6
T1 sequence (looked up): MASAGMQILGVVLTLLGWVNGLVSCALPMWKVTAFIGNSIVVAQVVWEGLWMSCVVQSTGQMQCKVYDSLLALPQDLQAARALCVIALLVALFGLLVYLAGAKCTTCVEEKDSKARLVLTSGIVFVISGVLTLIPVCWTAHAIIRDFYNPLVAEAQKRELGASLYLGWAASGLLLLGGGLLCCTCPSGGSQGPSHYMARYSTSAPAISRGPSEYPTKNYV
Kind of assay: flow cytometry on NUGC-3 cells expressing CLDN6, antibody 1 ng/mL to 25 µg/mL, PE anti-human IgG detection, gMFI. The method, then:
The cells of human gastric cancer cell line NUGC-3 (JCRB cell bank) expressing CLDN6 were suspended with PBS (Wako, #045-29795) containing 5% FBS so as to have a concentration of 1×10⁶ cells/mL. The suspension was seeded (added) in the wells of a 96-well V-bottom microplate at a rate of 100 μL/well. After centrifugation, the supernatant was removed. AbM: antibody comprising a heavy chain, aCLDN6-VH—CH₁—CH₂—CH₃ and a light chain, aCLDN6-VL-CL, disclosed in International Publication No. WO2022/058298. Ab0, Ab1 and Ab2 were suspended with 5% FBS-containing PBS such that the concentrations fall in the range of 1 ng/mL to 25 μg/mL (12 dilution series were prepared by serial dilution at a 2.5-fold dilution rate from 25 μg/mL to 1 ng/mL). The suspensions were added at a rate of 100 μL/well and allowed to stand still at 4° C. for one hour. […] A histogram of PE (phycoerythrin) fluorescence intensity of viable cell fractions was prepared and geometric mean fluorescence intensity (gMFI) was calculated. gMFI values were plotted to make a graph by GraphPad Prism (company: GraphPad Software). […]
Background: Flow cytometry measures light scatter and fluorescence of single cells or particles in a stream.

B1: humanized anti-CLDN6 antibody Ab1 (antibody, human IgG1, kappa, V domains shown)
VH: QVQLVESGGGVVQPGGSLRLSCKASGYSFTGYTMNWVRQAPGKGLEWVGLINPYNGGTIYNQKFKGRFTLSVDKSKSTAYLQMNSLRAEDTAVYYCARDYGFVLDYWGRGTLVTVSS
VL: DIQLTQSPSSLSASVGDRVTITCSASSSVSYLHWFQQKPGKAPKLLVYSTSNLPSGVPSRFSGSGSGTDYTLTISSLQPEDFATYYCQQRSIYPPWTFGQGTKLEIKR
notes: Humanized from mouse anti-CLDN6 antibody GT512muMAB 64A or 61D (WO 2011/057788), expressed in ExpiCHO-S cells; Tested as the naked antibody
In the case of B1, the binding result is on record as “binds”.

B2: humanized anti-CLDN6 antibody Ab2 (antibody, human IgG1, kappa, V domains shown)
VH: QVQLVESGGGVVQPGGSLRLSCKASGYSFTGYTMNWVRQAPGKGLEWVGLINPYNGGTIYNQKFKGRFTLSVDKSKSTAYLQMNSLRAEDTAVYYCARDYGYVLDYWGRGTLVTVSS
VL: DIQLTQSPSSLSASVGDRVTITCSASSSVSYLHWFQQKPGKAPKLLVYSTSNLPSGVPSRFSGSGSGTDYTLTISSLQPEDFATYYCQQRSIYPPWTFGQGTKLEIKR
notes: Tested as the naked antibody
Take B2: the binding result is on record as “binds”.
